# Experimental data as given in US20110158936A1 (LORUS THERAPEUTICS, published 2011).
# T1: murine interleukin 17E receptor present on the pre-B cell line 70Z/3 (murine, UniProt Q9JIP3 18-499)
# T1 construct: whole, on cells; This is the endogenous receptor on 70Z/3 cells; also called murine IL-17E receptor; IL-17E receptor
# T1 sequence (looked up): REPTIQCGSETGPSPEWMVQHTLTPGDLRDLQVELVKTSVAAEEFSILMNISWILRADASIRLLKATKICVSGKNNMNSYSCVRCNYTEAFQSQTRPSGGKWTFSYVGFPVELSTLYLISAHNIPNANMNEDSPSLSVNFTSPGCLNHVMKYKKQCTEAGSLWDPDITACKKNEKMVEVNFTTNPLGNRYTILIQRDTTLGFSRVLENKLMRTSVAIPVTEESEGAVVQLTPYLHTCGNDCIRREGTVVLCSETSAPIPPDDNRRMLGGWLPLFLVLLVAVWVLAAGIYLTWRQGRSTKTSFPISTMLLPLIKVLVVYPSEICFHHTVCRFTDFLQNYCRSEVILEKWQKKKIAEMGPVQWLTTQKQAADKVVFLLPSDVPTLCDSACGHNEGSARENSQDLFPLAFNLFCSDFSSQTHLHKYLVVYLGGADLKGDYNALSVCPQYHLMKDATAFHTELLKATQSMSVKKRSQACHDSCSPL
# How the values were obtained:
# [1] = biological target: T1, murine interleukin 17E receptor present …; test: FACS on 70Z/3 cells incubated with IL-17E (1 ug/10^6 cells), detected with biotin-conjugated goat anti-mouse IL17E and PE-Cy5.5 streptavidin
# Procedure: (§1) The ability of human and murine interleukin 17E to bind to the IL-17E receptor was examined using the murine pre-B cell line 70Z/3 (Paige, C. J., et al. (1981) Nature 292:631-3).
# (§2) Fluorescence-Activated Cell Sorter (FACS) Analysis: 1×10⁶ 70Z/3 cells/sample were incubated with either murine or human IL-17E (1 μg/10⁶ cells) for 30 minutes at 4° C. After washing twice, cells that had been incubated with murine IL-17E were incubated with biotin-conjugated goat anti-mouse IL17E and phycoerythrin (PE)-Cy5.5-conjugated streptavidin. Cells that had been incubated with human IL-17E were incubated with biotin-conjugated goat anti-human IL17E-biotin and phycoerythrin (PE)-Cy5.5-conjugated streptavidin. As negative controls, cells were stained with antibodies as described without preincubation with human or murine IL-17E. Samples were then fixed with 0.5% paraformaldehyde prior to FACS analysis.
# [2] = biological target: T1, murine interleukin 17E receptor present …; test: FACS on 70Z/3 cells incubated with IL-17E (1 ug/10^6 cells), detected with biotin-conjugated goat anti-human IL17E and PE-Cy5.5 streptavidin
# Procedure: as §1, §2
Binder,binding result [1],binding result [2]
"murine interleukin 17E (ligand, also called murine IL-17E; mIL-17E) VSLRIQEGCSHLPSCCPSKEQEPPEEWLKWSSASVSPPEPLSHTHHAESCRASKDGPLNSRAISPWSYELDRDLNRVPQDLYHARCLCPHCVSLQTGSHMDPLGNSVPLYHNQTVFYRRPCHGEEGTHRRYCLERRLYRVSLACVCVRPRVMA",binds,
"recombinant human interleukin 17E (ligand, also called human IL-17E; hIL-17E) YSHWPSCCPSKGQDTSEELLRWSTVPVPPLEPARPNRHPESCRASEDGPLNSRAISPWRYELDRDLNRLPQDLYHARCLCPHCVSLQTGSHMDPRGNSELLYHNQTVFYRRPCHGEKGTHKGYCLERRLYRVSLACVCVRPRVMG",,binds
